Results as given in patent US20230279105A1 (SINGLE CELL TECHNOLOGY, published 2023).

Target: T1, Human TIM-3 Human Fc tagged protein (human, fluorescently labeled with HiLyte Fluor 555 (sites not given))
T1 construct: Bought construct; also called TIM-3 protein tagged with human Fc; ACROBiosystems catalog no: TM3-H5258
Assay: capture slide probed with labeled TIM-3-Fc;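 note: IgG from single CD138-enriched plasma cells, isolated from lymphocytes, immobilized on a derivatized glass slide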

binding result | Binder
binds | SCT-Fa179 (antibody, V domains shown, murine IgG) VH: QVQLQQSGAELVRPGTSVKVSCKASGYAFSNYLIEWVKQRPGQGLEWIGVINPGNGGTTYNEKFKDKATLTADRSSTTAYMQLSSLTSEDSAVFFCARTAYGSPLDYWGQGTTLTVSS VL: DIKMTQSPSSMYASRGERVTITCKASQDINRYLSWLQQKPGKSPKTLIYRANRLVDGVPSRFSGSGSGQDYSLTISSLEYEDMGIYYCLQYDEFPYTFGGGTKLEIK
binds | SCT-Fa184 (antibody, V domains shown, murine IgG) VH: QVQLQQSGAELVRPGTSVKVSCKASGYAFTNYLIEWVKQRPGQGLEWIGVISPGSGGTTYNEKFKGKATLTADKSSSTAYMQFSSLTSEDSAVYFCARSAYGHVFDYWGQGTTLTVSS VL: DIKMTQSPSSIYASLGERVTITCKASQDINSYLKWFQQKPGKSPKTLIYRANRLVDGVPSRFSGSGSGQDYSLTISSLEYEDMGIYYCLQYDEFPYTFGGGTKLEIK
binds | SCT-Fa182 (antibody, V domains shown, murine IgG) VH: QVQLQQSGAELVRPGTSVKVSCKASGYAFTNYLIEWVKQRPGQGLEWIGVISPGSGATTYNEKFKGKATLTADRSSTTAYMQLSSLTSEDSAVYFCARSAYGSPLDFWGQGTTLTVSS VL: DIKMTQSPSSMYASLGERVTITCKASQDINRYLSWFQQKPGKSPKTLIYRVNRLVDGVPLRFSGSGSGQDYSLTISSLDYEDMGIYYCQQYDEFPYTFGGGTKLEIK
binds | SCT-Fa180 (antibody, V domains shown, murine IgG) VH: QVQLQQSGAELVRPGTSVKVSCKASGYAFTNYLIEWAKQRPGQGLEWIGVINPGSGATTYNEKFKGRATLTADMSSTTAYMQLSSLTSEDSAVFFCARTAYGSPLDCWGQGTTLTVSS VL: DIKMTQSPSSMYASLGERVTITCKASQDINRYLSWLQQKAGKSPKTLIYRENRLVEGVPSRFSGSGSGQDYSLTISSLEYEDMGIYYCLQYDEFPYTFGGGTKLEIK
binds | SCT-Fa172 (antibody, V domains shown, murine IgG) VH: QVQLQQSGAELARPGASVKLSCKASGYTFTSYGISWVKQRTGQGLEWIGEIYPRSGNTYYNEKFKGKATLTADKSSSTAYMELRSLTSEDSAVYFCARSTYGSSSYAMDYWGQGTSVTVSS VL: DVLMTQTPLSLPVSLGDQASISCRSSQSIVHSNGNTYLEWYLQKPGQSPKLLIYKVSNRFSGVPDRFSGSGSGTDFTLKISRVEAEDLGVYYCFQGSHVPYTFGGGTKLEIK
binds | SCT-Fa177 (antibody, V domains shown, murine IgG) VH: QVQLQQSGAELVRPGASVTLSCKASGYTFTDYEMYWVKQTPVHGLEWIGVIDPETGGTAHDQKFKGKAILTADKSSSTAYMELRSLTSEDSAVYYCTRWAFWGQGTLVTVSA VL: DVVMTQTPLSLPVSLGDQASISCRSSQSLVHSNGNTYLHWYLQKPGQSPKLLIYKVSNRFSGVPDRFSGSGSGTDFTLRISRVEADDLGVYFCSQSTHVPYTFGGGTKLEIK
binds | SCT-Fa007 (antibody, V domains shown, murine IgG) VH: EVKLVESEGGLVHPGSSMKLSCTASGFTFSDYYMAWVRQVPEKGLEWIANINFDGSGTYYLDSLKSRFIISRDNGKNILYLQMSGLKSEDTATYYCARLYDGYYAYWGQGTTLTVSS VL: DVVMTQTPLSLPVSLGDQASISCRSSQSLVHSNGNTYLYWYLQKPGQSPKLLIYKVSNRFSGVPDRFSGSGSGTDFTLKISRVEAEDLGVYFCSQSTHVPLTFGAGTKLELK
binds | SCT-Fa176 (antibody, V domains shown, murine IgG) VH: QVQLQQSGAELVRPGASVTLSCKASGYTFTDFEMHWVKQTPVHGLEWIGAIDPETGGTAYNQKFKGKAILTADRSSSTAYMELRSLTSEDSAVYYCTRGIYYGNYGSAMDYWGQGTSVTVSS VL: DVLMTQTPLSLPVSLGDQASISCRSSQSIVHSNGNTYLEWYLQKPGQSPKLLIYKVSNRFSGVPDRFSGSGSGTDFTLKISRVEAEDLGVYYCFQGSHAPLTFGAGTKLELK
binds | SCT-Fa008 (antibody, V domains shown, murine IgG) VH: EVKLVESEGGLVQLGSSMKLSCTASGFTFSDYYMAWVRQVPEKGLEWIANINFDGSGTYYLDSLKSRFIISRDNGKNILYLQMSGLKSEDTATYYCARLYDGYYAYWGQGTTLTVSS VL: DVVVTQTPLSLPVSLGDQASISCRSSQSLVHSNGNTYLYWYLQKPGQSPKLLIYKVSNRFSGVPDRFSGSGSGTDFTLKISRVEAEDLGVYFCSQSTHVPLTFGAGTKLELK
binds | SCT-Fa018 (antibody, V domains shown, murine IgG) VH: EVKLVESEGGLVQPGSSMKLSCTASGFTFSDYYMAWVRQVPEKGLEWVANINFDGSSSYYLDSLKSRFIISRDNTKNILYLQMSSLKSEDTATYYCARLYDGYYAYWGQGTTLTVSS VL: DVVMTQTPLSLPVSLGDQASISCRSSQSLIHSNGNTYLYWYLQKPGQSPTLLIYKVSNRFSGVPDRFSGSGSGTDFTLKISRVEAEDLGVYFCSQSTHVPLTFGAGSKLELK
binds | SCT-Fa174 (antibody, V domains shown, murine IgG) VH: QVQLQQSGAELVKPGASVKLSCKASGYSITGYYIHWVKQRPGQGLEWIGWIYPGSGSIKYNEKFKGKATLTADTSSSTADMQLSSLTSEDSAVYYCAREAWGNWYFDVWGTGTTVTVSS VL: DILLTQSPAILSVSPGERVSFSCRASQSIGTSIHWYQQRTNGSPRLLIKYASESISGIPSRFSGSGSGTDFTLSINSVESEDIADYYCQQSNSWPYTFGGGTKLEIK
binds | SCT-Fa183 (antibody, V domains shown, murine IgG) VH: QVQLQQSGAELVRPGTSVKVSCKASGYAFTNYLIEWVKQRPGQGLEWIGVISPGSGATTYNEKFKGKATLTADRSSTTAYMQLSSLTSEDSAVYFCARSAYGSPLDFWGQGTTLTVSS VL: DILLTQSPDILSVSPGERVSFSCRASQNIGTSIHWYQQRTNGSPRLLIKYASESISGISSRFSGSGSGTDFTLSINSVESEDIADYYCQQSNNWPFTFGSGTKLEIK
binds | SCT-Fa173 (antibody, V domains shown, murine IgG) VH: QVQLQQSGAELMRPGASVTLSCKASGYTFPDYEMYWVKQTPVHGLEWIGVIDPETGGTAYNQKFEVKAILTADKSSNTAYMELRSLTSEDSAVYYCTRWAYWGQGTLVTVSA VL: QIVLTQSPAIMSASLGERVTMTCTASSSVSSSYLHWYQQKPGSSPKLWVYSTSNLASGVPGRFSGSGSGTSYSLTISSMEAEDAATYYCHHYHRSPPTFGGGTKLEIK
binds | SCT-Fa175 (antibody, V domains shown, murine IgG) VH: QVQLQQSGAELVRPGASVTLSCKASGYTFSDYEMHWVKQTPVHGLEWIGVIDPETGDTAYNQKFKDKAVLTADKSSNTAYMELRSLTSEDSAVFFCTSNGYPEHWGQGTTLTVSS VL: QIVLTQSPAIMSASLGERVTMTCTASSGVSSTYLHWYQQRPGSSPKLWIYSTSTLASGVPARFSGSGSGTSYSLTISSMEAEDAATYYCHQYHRSPLTFGAGTKLELK
binds | SCT-Fa178 (antibody, V domains shown, murine IgG) VH: QVQLQQSGAELVRPGASVTLSCKASGYTFTDYEMYWVKQTPVHGLEWIGVIDPETGGTAHDQKFKGKAILTADKSSSTAYMELRSLTSEDSAVYYCTRWAFWGQGTLVTVSA VL: QIVLTQSPAIMSASLGERVTMTCTASSSVSSSYLHWYQQKPGSSPKLWVYSTSNLASGVPGRFSGSGSGTSYSLTISSMEAEDAATYYCHHYNRSPPTFGGGTKLEIK
binds | SCT-Fa181 (antibody, V domains shown, murine IgG) VH: QVQLQQSGAELVRPGTSVKVSCKASGYAFTNYLIEWVKQRPGQGLEWIGVINPGSGATNYNEKFKGKATLTADKSSSTAYMQLRSLASEDSAVYFCARRTTVVAPYAMDYWGQGTSVTVSS VL: DIQMTQTTSSLSASLGDRVTISCRASQDISNYLNWYQQKPDGTVELLIYYTSRLHSGVPSRFSGSGSGTDYSLTISNLEQEDIATYFCQQGNTLPRTFGGGTKLEIK
